From patent US20020039776

These substances were tested on free histones (mixture of H1, H3, H2B, H2A and H4; Boehringer Mannheim).

Sequence of GST-EZH2(382-747) (chain, as listed by the source): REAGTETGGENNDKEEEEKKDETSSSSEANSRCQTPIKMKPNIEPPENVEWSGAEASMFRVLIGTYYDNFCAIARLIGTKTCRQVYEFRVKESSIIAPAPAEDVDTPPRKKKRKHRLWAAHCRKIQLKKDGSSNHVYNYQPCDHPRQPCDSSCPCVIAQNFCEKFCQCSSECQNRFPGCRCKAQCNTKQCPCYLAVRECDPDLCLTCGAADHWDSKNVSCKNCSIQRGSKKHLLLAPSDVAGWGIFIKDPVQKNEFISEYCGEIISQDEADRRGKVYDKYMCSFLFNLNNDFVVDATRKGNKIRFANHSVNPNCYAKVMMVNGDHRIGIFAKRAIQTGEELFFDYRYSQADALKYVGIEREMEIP

Substance	HMTase activity
GST-Suv39h2(157-477)	The SU(VAR)3-9 family members assayed, SUV39H1, Suv39h2 and CLR4, displayed HMTase activity.
GST-HRX(3643-3969)	had undetectable HMTase activity towards free histones
GST-EZH2(382-747)	had undetectable HMTase activity towards free histones
